Data from US6653088 (AVENTIS PHARMA S A, dated 2003).

B1: cytoplasmic domain of the APP (MC45F) (other, not shown: small tags and cut ends)
chain: KKQYTSIHHGVVEVDAAVTPEERHLSKMQQNGYENPTYKFFEQMQNDYDDDDK
notes: also called cytoplasmic domain of APP; the 45 last residues of the APP
B2: amyline (peptide, UniProt P10997 34-70, looked up)
peptide: KCNTATCATQRLANFLVHSSNNFGAILSSTNVGSNTY
notes: also called another amyloidogenous peptide
B3: S-tag-PS2Nt (recombinant PS2NT protein produced in bacterium) (other, not shown: small tags and cut ends)
chain: MLTFMASDSEEEVCDERTSLMSAESPTPRSCQEGRQGPEDGENTAQWRSQENEEDGEEDPDRYVCSGVPGRPPGLEEELTLKYGAKH
notes: also called unlabelled PS2NT

Legend:
presenilin 2 (PS2) = molecular target: T1, presenilin 2 (PS2) (human, UniProt P49810 1-448); test: co-immunoprecipitation from cotransfected COS cells, detection with αCT43
T1 construct: whole, on cells; Full-length membrane protein; complexes formed in transfected COS cells and were analysed in detergent lysates; also called complete PS2; STM2

[1] = molecular target: B3; test: 96-well plate test (ELISA type), peptide on plastic, S-tag detection
Method: The plates are rinsed twice with PBS and the non-specific immobilization sites are saturated by incubation with 5% (w/v) of bovine serum albumin in PBS. […] The detection of the signal is carried out in a spectrophotometer at 450 nm.
The Aβ peptide (Aβ40 or Aβ42) is immobilized by incubation on plastic 96-well plates.

biot-3K-Aβ42RR = molecular target: T2, biot-3K-Aβ42RR (UniProt P05067 672-713, biotin at the N-terminal end); test: HTRF competition; unlabelled PS2NT displaces PS2NT-K from biot-Aβ42
T2 construct: domain: Aβ1-42; also called biot-Aβ42; biot-Aβ1-42

Q: Does B1 bind (presenilin 2 (PS2))?
A: no binding

Q: Does B2 bind [1]?
A: no binding

Q: With B3 as the binder, how does the IC50 (biot-3K-Aβ42RR) read?
A: 400 nM
